Source: patent US20250101446A1, “METHOD FOR GENETIC TRANSFORMATION OF PLANT ORGANELLE GENOME AND USES THEREOF” (Solar Grants Biotechnology Inc., priority 2022, published 2025)

Columns and labels:
[1] = target: the molecule itself; assay: self-association (dimers and multimers) seen on SDS-PAGE and western blot
Procedure: Western blots membranes were visualized using the enhanced chemiluminescence (ECL) detection kit (GE Healthcare, Cat. No. RPN2232) and imaged with the DNR Bio-Imaging System MicroChemi (RANCOM A/S, Birkerød, Denmark). Densitometry was performed using the TotalLab TL 100 software (Nonlinear Dynamics, Durham, NC).

LPS-stimulated PBMCs = assay: Cytokine secretion from LPS-stimulated PBMCs treated with plantakines (multiplex Luminex); type: cell-based, human
Procedure: The bioactivity of our plantakines IL-37b and IL-38 was assessed by monitoring the secretion of 11 cytokines, generally regarded as inflammatory markers, from PBMCs stimulated with an IA. Freshly isolated human PBMCs were subjected to various treatments-combinations of the IAs with the plantakines at different concentrations. Two different model IAs were used, either the bacterial lipopolysaccharides (LPS) or a lectin from Phaseolus vulgaris (phytohaemagglutinin, PHA); each of the IAs was applied onto cells separately, each IA was applied at two concentrations: […]; PHA at 5 and 10 μg/mL. Each IA at each concentration was applied in combination with one of the two plantakines, each of them at three different concentrations: 1, 10 and 100 ng/ml of the monomeric forms present in the purified extracts. Also included were treatments comprised of either IA at their lower concentrations, in combination with both plantakines at 10 ng/ml concentration in order to assess possible synergistic effects. Cells with only IAs applied represented the reference (positive controls for each concentration), cells without any treatment represented the basal level (negative control). The levels of eleven different pro-inflammatory cytokines secreted into the medium from the PBMCs-GM-SCF, IFNγ. TNFα, IL-1α, IL-1β, IL-6, IL-8, IL-22, IL12, IL-17 and IL-10 were compared between the treatments and the controls. We applied Generalized Estimating Equation (GEE) model for the statistical data analysis. This statistical approach allows for nested observations and was used to test the effects of the plantakines IL-37b and IL-38 and their dosage in the context of IA-stimulated PBMCs inflammatory responses.
After isolation, the PBMCs from each donor separately were counted, plated in equal numbers per well and stimulated for 24 h with the applied treatments. Control wells on the plate contained media only (as basal level controls), and LPS and PHA (as positive controls at their corresponding concentrations). After the 24 h treatments stimulation the PBMCs' culture supernatants were used in the multiplex Luminex platform-assisted analysis of the concentrations of the 11 secreted pro-inflammatory cytokines.
The whole blood from 5 random human donors was collected in ACD Vacutainer tubes and immediately processed for isolation of PBMCs by gradient density centrifugation using Lympholyte. […] 5% CO2 and >80% humidity. PBMCs were treated with one of two IAs at 2 concentrations each ([…]; PHA at 5 and 10 μg/mL) in combination with two test items (plant-produced IL-37b or IL-38) at three concentrations each (1, 10 and 100 ng/ml), based on the monomeric form amounts estimated with densitometry (ImageJ). Each treatment was tested in triplicates. Control wells contained media only (negative control, basal level of detection) and the examined IAs at both tested concentrations as the positive controls. The PBMCs were incubated for 24 hours after the stimulation for analysis of the levels of the secreted cytokines that were determined in the culture supernatant using a multiplex immunoassay (MAGPix®, Luminex), analytes were selected from the Milliplex panel HCYTOMAG-60K, sensitivity range of […]. All parameters of the Milliplex panel cytokines analysis using Luminex platform were validated (Millipore-Sigma).
Non-linear logarithm transformation was performed to address non-normality of distribution of Luminex-derived numeric data. Generalized Estimating Equation (GEE) method was used in the analysis of nested (correlated) structure of the data. Secreted inflammatory cytokine values were used as dependent variables and test item (plantakines) with dosage as independent predictors (factors). Separate analyses were conducted for each of the 11 monitored cytokines and each inflammatory agent/concentration combination. Analysis was performed using SPSS software version 27 using the level of significance 0.05 (p-values <0.05 are reported as statistically significant). […]

B1: plant-produced recombinant human IL-38, mature form C2-W152 with C-terminal 7xHIS tag (ligand)
chain: CSLPMARYYIIKYADQKALYTRDGQLLVGDPVADNCCAEKICILPNRGLARTKVPIFLGIQGGSRCLACVETEEGPSLQLEDVNIEELYKGGEEATRFTFFQSSSGSAFRLEAAAWPGWFLCGPAEPQQPVQLTKESEPSARTKFYFEQSWHHHHHHH
notes: range 2-152; also called rhIL-38; plantakine IL-38
- binding result [1]: binds
- secreted GM-CSF level modulation vs positive control (LPS-stimulated PBMCs; 1 ng/mL, LPS 150 pg/mL): −59.4%, p < 0.001
- secreted IL-1α level modulation vs positive control (LPS-stimulated PBMCs; 1 ng/mL, LPS 150 pg/mL): −25.9%, p < 0.001
- secreted IL-1β level modulation vs positive control (LPS-stimulated PBMCs; 1 ng/mL, LPS 150 pg/mL): −27.4%, p < 0.001
- secreted IL-6 level modulation vs positive control (LPS-stimulated PBMCs; 1 ng/mL, LPS 150 pg/mL): −7.7%, p = 0.178
- secreted IL-8 level modulation vs positive control (LPS-stimulated PBMCs; 1 ng/mL, LPS 150 pg/mL): 22.1%, p = 0.625
- secreted IL-10 level modulation vs positive control (LPS-stimulated PBMCs; 1 ng/mL, LPS 150 pg/mL): −14.8%, p = 0.040
- secreted IL-12 level modulation vs positive control (LPS-stimulated PBMCs; 1 ng/mL, LPS 150 pg/mL): 14.9%, p = 0.607
- secreted IL-17 level modulation vs positive control (LPS-stimulated PBMCs; 1 ng/mL, LPS 150 pg/mL): −21.3%, p = 0.004
- secreted IL-22 level modulation vs positive control (LPS-stimulated PBMCs; 1 ng/mL, LPS 150 pg/mL): −38.1%, p = 0.065
- secreted TNFα level modulation vs positive control (LPS-stimulated PBMCs; 1 ng/mL, LPS 150 pg/mL): −36.9%, p = 0.035
- secreted GM-CSF level modulation vs positive control (LPS-stimulated PBMCs; 1 ng/mL, LPS 300 pg/mL): −14.1%, p = 0.118
- secreted IFNγ level modulation vs positive control (LPS-stimulated PBMCs; 1 ng/mL, LPS 300 pg/mL): −16.5%, p = 0.006
- secreted IL-1α level modulation vs positive control (LPS-stimulated PBMCs; 1 ng/mL, LPS 300 pg/mL): −7.7%, p = 0.178
- secreted IL-1β level modulation vs positive control (LPS-stimulated PBMCs; 1 ng/mL, LPS 300 pg/mL): −13.1%, p < 0.001
- secreted IL-6 level modulation vs positive control (LPS-stimulated PBMCs; 1 ng/mL, LPS 300 pg/mL): −5.8%, p = 0.323
- secreted IL-10 level modulation vs positive control (LPS-stimulated PBMCs; 1 ng/mL, LPS 300 pg/mL): 6.2%, p = 0.006
- secreted IL-12 level modulation vs positive control (LPS-stimulated PBMCs; 1 ng/mL, LPS 300 pg/mL): 1.9%, p = 0.906
- secreted IL-17 level modulation vs positive control (LPS-stimulated PBMCs; 1 ng/mL, LPS 300 pg/mL): −28.8%, p < 0.001
- secreted IL-22 level modulation vs positive control (LPS-stimulated PBMCs; 1 ng/mL, LPS 300 pg/mL): −40.0%, p < 0.001
- secreted TNFα level modulation vs positive control (LPS-stimulated PBMCs; 1 ng/mL, LPS 300 pg/mL): −49.3%, p = 0.184
- secreted GM-CSF level modulation vs positive control (LPS-stimulated PBMCs; 10 ng/mL, LPS 150 pg/mL): 7.3%, p = 0.230
- secreted IFNγ level modulation vs positive control (LPS-stimulated PBMCs; 10 ng/mL, LPS 150 pg/mL): −16.5%, p = 0.012
- secreted IL-1α level modulation vs positive control (LPS-stimulated PBMCs; 10 ng/mL, LPS 150 pg/mL): −14.8%, p < 0.001
- secreted IL-1β level modulation vs positive control (LPS-stimulated PBMCs; 10 ng/mL, LPS 150 pg/mL): −13.1%, p = 0.002
- secreted IL-6 level modulation vs positive control (LPS-stimulated PBMCs; 10 ng/mL, LPS 150 pg/mL): 0.0%, p = 1.000
- secreted IL-8 level modulation vs positive control (LPS-stimulated PBMCs; 10 ng/mL, LPS 150 pg/mL): 8.3%, p = 0.639
- secreted IL-10 level modulation vs positive control (LPS-stimulated PBMCs; 10 ng/mL, LPS 150 pg/mL): −3.9%, p = 0.264
- secreted IL-12 level modulation vs positive control (LPS-stimulated PBMCs; 10 ng/mL, LPS 150 pg/mL): 51.1%, p = 0.522
- secreted IL-17 level modulation vs positive control (LPS-stimulated PBMCs; 10 ng/mL, LPS 150 pg/mL): −16.5%, p = 0.012
- secreted IL-22 level modulation vs positive control (LPS-stimulated PBMCs; 10 ng/mL, LPS 150 pg/mL): −29.4%, p = 0.008
- secreted TNFα level modulation vs positive control (LPS-stimulated PBMCs; 10 ng/mL, LPS 150 pg/mL): −44.0%, p = 0.116
- secreted GM-CSF level modulation vs positive control (LPS-stimulated PBMCs; 10 ng/mL, LPS 300 pg/mL): 29.1%, p < 0.001
- secreted IFNγ level modulation vs positive control (LPS-stimulated PBMCs; 10 ng/mL, LPS 300 pg/mL): −24.4%, p = 0.018
- secreted IL-1α level modulation vs positive control (LPS-stimulated PBMCs; 10 ng/mL, LPS 300 pg/mL): 2.0%, p = 0.550
- secreted IL-1β level modulation vs positive control (LPS-stimulated PBMCs; 10 ng/mL, LPS 300 pg/mL): −2.0%, p = 0,550
- secreted IL-6 level modulation vs positive control (LPS-stimulated PBMCs; 10 ng/mL, LPS 300 pg/mL): 2.0%, p = 0.736
- secreted IL-8 level modulation vs positive control (LPS-stimulated PBMCs; 10 ng/mL, LPS 300 pg/mL): −5.8%, p = 0.469
- secreted IL-10 level modulation vs positive control (LPS-stimulated PBMCs; 10 ng/mL, LPS 300 pg/mL): 8.3%, p = 0.178
- secreted IL-12 level modulation vs positive control (LPS-stimulated PBMCs; 10 ng/mL, LPS 300 pg/mL): 10.6%, p = 0.586
- secreted IL-17 level modulation vs positive control (LPS-stimulated PBMCs; 10 ng/mL, LPS 300 pg/mL): −31.6%, p < 0.001
- secreted IL-22 level modulation vs positive control (LPS-stimulated PBMCs; 10 ng/mL, LPS 300 pg/mL): −45.0%, p < 0.001
- secreted TNFα level modulation vs positive control (LPS-stimulated PBMCs; 10 ng/mL, LPS 300 pg/mL): −40.5%, p = 0.311
- secreted GM-CSF level modulation vs positive control (LPS-stimulated PBMCs; 100 ng/mL, LPS 150 pg/mL): 21.2%, p = 0.013
- secreted IFNγ level modulation vs positive control (LPS-stimulated PBMCs; 100 ng/mL, LPS 150 pg/mL): −40.5%, p = 0.008
- secreted IL-1α level modulation vs positive control (LPS-stimulated PBMCs; 100 ng/mL, LPS 150 pg/mL): −3.9%, p = 0.380
- secreted IL-1β level modulation vs positive control (LPS-stimulated PBMCs; 100 ng/mL, LPS 150 pg/mL): −13.1%, p = 0.002
- secreted IL-6 level modulation vs positive control (LPS-stimulated PBMCs; 100 ng/mL, LPS 150 pg/mL): 0.0%, p = 1.000
- secreted IL-8 level modulation vs positive control (LPS-stimulated PBMCs; 100 ng/mL, LPS 150 pg/mL): −9.5%, p = 0.077
- secreted IL-10 level modulation vs positive control (LPS-stimulated PBMCs; 100 ng/mL, LPS 150 pg/mL): −30.2%, p < 0.001
- secreted IL-12 level modulation vs positive control (LPS-stimulated PBMCs; 100 ng/mL, LPS 150 pg/mL): 17.2%, p = 0.544
- secreted IL-17 level modulation vs positive control (LPS-stimulated PBMCs; 100 ng/mL, LPS 150 pg/mL): −24.4%, p = 0.025
- secreted IL-22 level modulation vs positive control (LPS-stimulated PBMCs; 100 ng/mL, LPS 150 pg/mL): −23.7%, p = 0.241
- secreted TNFα level modulation vs positive control (LPS-stimulated PBMCs; 100 ng/mL, LPS 150 pg/mL): −34.3%, p = 0.232
- secreted GM-CSF level modulation vs positive control (LPS-stimulated PBMCs; 100 ng/mL, LPS 300 pg/mL): 88.8%, p < 0.001
- secreted IFNγ level modulation vs positive control (LPS-stimulated PBMCs; 100 ng/mL, LPS 300 pg/mL): −21.3%, p < 0.001
- secreted IL-1α level modulation vs positive control (LPS-stimulated PBMCs; 100 ng/mL, LPS 300 pg/mL): 6.2%, p = 0.188
- secreted IL-1β level modulation vs positive control (LPS-stimulated PBMCs; 100 ng/mL, LPS 300 pg/mL): 2.0%, p = 0.648
- secreted IL-6 level modulation vs positive control (LPS-stimulated PBMCs; 100 ng/mL, LPS 300 pg/mL): 0.0%, p = 1.000
- secreted IL-8 level modulation vs positive control (LPS-stimulated PBMCs; 100 ng/mL, LPS 300 pg/mL): 46.2%, p = 0.500
- secreted IL-10 level modulation vs positive control (LPS-stimulated PBMCs; 100 ng/mL, LPS 300 pg/mL): −28.8%, p < 0.001
- secreted IL-12 level modulation vs positive control (LPS-stimulated PBMCs; 100 ng/mL, LPS 300 pg/mL): 17.4%, p = 0.271
- secreted IL-17 level modulation vs positive control (LPS-stimulated PBMCs; 100 ng/mL, LPS 300 pg/mL): −30.2%, p < 0.001
- secreted IL-22 level modulation vs positive control (LPS-stimulated PBMCs; 100 ng/mL, LPS 300 pg/mL): −31.8%, p = 0.003
- secreted TNFα level modulation vs positive control (LPS-stimulated PBMCs; 100 ng/mL, LPS 300 pg/mL): −13.1%, p = 0.581
- Decreased secretion: number of treatments with statistically significant modulation (LPS-stimulated PBMCs; LPS 150 pg/mL): 16
- Increased secretion: number of treatments with statistically significant modulation (LPS-stimulated PBMCs; LPS 150 pg/mL): 1
- Decreased secretion: number of treatments with statistically significant modulation (LPS-stimulated PBMCs; LPS 300 pg/mL): 12
- Increased secretion: number of treatments with statistically significant modulation (LPS-stimulated PBMCs; LPS 300 pg/mL): 2
